According to the DeepSol protein solubility set:

Assay: soluble on expression in E. coli; label from the status in PepcDB or PDB records

Question: For “LLGDEAIALGAIHAGISGVYAYPGTPSTEITEFIQNNRLAKERKLHSTWCTNEKTAMEAALGMSYAGKRALVCMKHVGMNVAADAFVNSAITGVNGGLVVLAADDPSMHSSQNEQDSRFYGKFAMIPMLEPSSQQEAYDMMDYAYTLSEKLKLPVLMRVVTRLAHSRAGVEVADIREENQLNPDHERAHWVLLPGNARKQYLDLVKKQEKLEEASSKSPYNYLEGLNPEYDYEFGVIACGIGYNYVKEADTDSCHIPVLKVSQYPLPAEEIRTMADRCGYVLVVEDGQPFVEEQVKAILSSDYEVKGRLTETLPRTGELTPDNVGEAIGWGIKRPFGKSQVVMPRPPALCQGCGHRDVYDALNKVAAEYPDARIFGDIGCYTLGALPPFRAIDSCVDMGASITMAKGASDAGVFPAIAVIGDSTFTHSGMTGLLDAVNDRANITVVISDNLTTAMTGGQDSAGTNKFEAICLGLGVEPEHVRVVVPLPKNMEEITRTIREEIEY”, which “soluble on expression in E. coli” value is on record?
Answer: not soluble

Question: Which “soluble on expression in E. coli” value does the source give for “LLIGFWDCVTCHGSPVDICTAKPRDIPMNPMCIYRSPEKKATEDEGSEQKIPEATNRRVWELSKANSRFATTFYQHLADSKNDNDNIFLSPLSISTAFAMTKLGACNDTLQQLMEVFKFDTISEKTSDQIHFFFAKLNCRLYRKANKASKLVSANRLFGDKSLTFNETYQDISELVYGAKLQPLDFKENAEQSRAAINKWVSNKTEGRITDVIPSEAINELTVLVLVNTIYFKGLWKSKFSPENTRKELFYKADGESCSASMMYQEGKFRYRRVAEGTQVLELPFKGDDITMVLILPKPEKSLAKVEKELTPEVLQEWLDELEEMMLVVHMPRFRIEDGFSLKEQLQDMGLVDLFSPAASALPGIVAEGRDDLYVSDAFHKAFLEVNEEGSEAAASTAVVIAGRSLNPNRVTFKANRPFLVFIREVPLNTIIFMGRVANPCVK” here?
Answer: soluble

Question: For “LNHETITKRTLLSSLMETNSLNYPNQVKLSERLAELYGASFGIGVSKKGNQHWFNISMNIVNDHYLQDSQVLAEAVDFLKEIIFAPNIQAGQFEAETFQREKENLKAYLESIVED”, which “soluble on expression in E. coli” value is on record?
Answer: not soluble

Question: With “LNKELQHERLAYITDSELIIFADFLPTEFVDEYLIDQSEESVAHIQQALSYEDNKVGRYAEPHFLVANPKNSVGGIKTELLKRGQSPVRLIIVRDVGGVIGTIEPQILLLHENHTKLTDLTVVTPILEDIQTIQSVSKQVSIDGGAHWFPIMAGGKIMGVLSMATIAITLRELSLQAVVAENVRSEEDLFTPLTVATRLRAL” as the sequence, how does the “soluble on expression in E. coli” value read?
Answer: not soluble

Question: For “LPNITILATGGTIAGGGDSATKSNYTVGKVGVENLVNAVPQLKDIANVKGEQVVNIGSQDMNDNVWLTLAKKINTDCDKTDGFVITHGTETMEETAYFLDLTVKCDKPVVMVGAMRPSTSMSADGPFNLYNAVVTAADKASANRGVLVVMNDTVLDGRDVTKTNTTDVATFKSVNYGPLGYIHNGKIDYQRTPARKHTSDTPFDVSKLNELPKVGIVYNYANASDLPAKALVDAGYDGIVSAGVGNGNLYKSVFDTLATAAKTGTAVVRSSRVPTGATTQDAEVDDAKYGFVASGTLNPQKARVLLQLALTQTKDPQQIQQIFNQY”, which “soluble on expression in E. coli” value is on record?
Answer: soluble

Question: Which “soluble on expression in E. coli” value does the source give for “LPTSNPAQELEARQLERTTRDDLINGNSASCADVIFIYARGSTEAGNLGTLGPSIASNLESAFGKDGVWIQGVGGAYRATLGDNALPRGTSSAAIREMLGLFQQANTKCPDATLIAGGYSQGAALAAASIEDLDSAIRDKIAGTVLFGYTKNLQNRGRIPNYPADRTKVFCNTGDLVCTGSLIVAAPHLAYGPDARGPAPEFLIEKVRAVRGSA” here?
Answer: soluble

Question: With “LQELSITNFAIIEHLDIAFEAGMTVLTGETGAGKSIIIDAVGLLAGGRGSAEFIRTGADKAVLQGMFILPADGVTAQLLDEAGIEHADNTVILQREITKSGRNTCRINGMLVNTTTLKQIGETIVDIHGQNEHQELMQPEKHLGLLDEFATA” as the sequence, how does the “soluble on expression in E. coli” value read?
Answer: not soluble

Question: Which “soluble on expression in E. coli” value does the source give for “LQYQPNKLARALTSSGFDAIMVISTRSTKTTAGNPFFSEVLHAITAKAEEEGFDVILQTSHNPAEDLQKCESKIKQKMIKGIIMLSSPADESFFAQLDKYDIPVVVIGKVEGQYAHVYSVDTDNFGDSIALTDALIESGHQNIACLHAPLDVHVSVDRVNGYKQSLAAHNIAVRDEWIVDGGYTHETALKAARQLLSQSPLPEAVFATDSLKLMSIYRAAAEKNIAIPQQLAVVGYSNETLSFILTPAPGGIDVPTQELGQQSCELLFRLISGKPSPQNITVATHMTLK” here?
Answer: soluble

Question: With “LRSSSQNSSDKPVAHVVANHQVEEQLEWLSQRANALLANGMDLKDNQLVVPADGLYLVYSQVLFKGQGCPDYVLLTHTVSRFAISYQEKVNLLSAVKSPCPKDTPEGAELKPWYEPIYLGGVFQLEKGDQLSAEVNLPKYLDFAESGQVYFGVIAL” as the sequence, how does the “soluble on expression in E. coli” value read?
Answer: soluble

Question: Which “soluble on expression in E. coli” value does the source give for “LSFQDELMRALNPDVLVVQKRPEGVLPLDELVRRIEGAEPGRKVAFVWVEMDSDKAGRIFYTPPPGQRRGESRWIDPYTGAFVGEPRGEGFFNLMMQLHRFLAMGEYGKQV” here?
Answer: not soluble

Question: For “LSGLTRPQEGTDEVTDAHASACLAALERGFDAEWGGFGGEPKFPRPAVLSFLFSHAVATGNRHALDMALLTLRKMAAGGIHDHLGVAGLGGGGFARYSTDRFWHVPHFEKMLYDNAQLAASYLEAYQASGDELFANTARDIFHYVLCDMTSPEGAFWSAEDADSLDPYGSGEKREGAFYLWTEQEITGLLDPEEATLFIATYGIRSDGNAPFDPHGEFTGKNILIRTMSDNELAGTFEIPIETVGKRLNSARKKLFEARKKRPRPGLDDKILTSWNGLMLSALAKGSLVLGDTTLLEAAERAARFILDTLCDSKSGKLLRRYRDGQAAIEGKAADYACLILGLLDLYSASFDSDWLRAAIKLAEAQIERFFDQEAGVFYSTAVEDHSVPLR”, which “soluble on expression in E. coli” value is on record?
Answer: not soluble

Question: With “LTAEEIIQYISDAKKSTPIKVYLNGNFEGITYPESFKVFGSEQSKVIFCEADDWKPFYEAYGSQFEDIEIEMDRRNSAIPLKDLTNTN” as the sequence, how does the “soluble on expression in E. coli” value read?
Answer: soluble

Question: For “LTLGSISLTAFIMGVVFWGGFNTALEATNTEEFCIGCHSMESKPYQELQKTVHWSNHSGVRATCPDCHVPHSWGRKIARKMEASSDVWGWVFNTVNTSEKFEDKRLEMASREWARFERDDSLACKNCHNYDSMKWDTMSKLAQKQMKRAAEKDQSCVDCHKGIAHILPDMGTARAPQLIAEVGTGPSKFTNEQYYFSALTKPLFFSAKGDVEAGTLNVATKVKILESKENRVKVSISGWRKQIGAGRVIYYDFGINMLTAQLSKEAAKTEGVINGFEEKEDEMTGLKWQRVETTLWTDAEYLITEQQPLWDYARTTFRSSCSVCHTQPDEAHFDA”, which “soluble on expression in E. coli” value is on record?
Answer: not soluble

Question: Which “soluble on expression in E. coli” value does the source give for “MAADPASAPVLLHPRRAMVLAAGLGLRMRPLTETMPKPLVAIHDKPLIDWALDHLATAGVEEAVVNLHHLPEMLEAHLQGRATPRIHFSDETGQRLETGGGVRKALPHLGDDPFYVLNSDVLWLNGTIPALDRLAAAWDPETMDALLLLHPLAAAHGYEGLGDFDLDPLGRPTRRAEMHMAPFIFTGVQILHPRLFDDAPEGPFSLNVLYDRALSEDRLAAIVHDGEWYHVGTPQALVHTETILGQHSSMSDQLEHHHHHH” here?
Answer: not soluble

Question: Which “soluble on expression in E. coli” value does the source give for “MAADYDKLFRPHEGMEAPDDMAAQPFFDPSASFPPAPASANLPKPNGQTPPPTSDDLSERFVSAPPPPPPPPPPPPPTPMPIAAGEPPSPEPAASKPPTPPMPIAGPEPAPPKPPTPPMPIAGPEPAPPKPPTPPMPIAGPAPTPTESQLAPPRPPTPQTPTGAPQQPESPAPHVPSHGPHQPRRTAPAPPWAKMPIGEPPPAPSRPSASPAEPPTRPAPQHSRRARRGHRYRTDTERNVGKVATGPSIQARLRAEEASGAQLAPGTEPSPAPLGQPRSYLAPPTRPAPTEPPPSPSPQRNSGRRAERRVHPDLAAQHAAAQPDSITAATTGGRRRKRAAPDLDATQKSLRPAAKGPKVKKVKPQKPKATKPPKVVSQRGWRHWVHALTRINLGLSPDEKYELDLHARVRRNPRGSYQIAVVGLKGGAGKTTLTAALGSTLAQVRADRILALDADPGAGNLADRVGRQSGATIADVLAEKELSHYNDIRAHTSVNAVNLEVLPAPEYSSAQRALSDADWHFIADPASRFYNLVLADCGAGFFDPLTRGVLSTVSGVVVVASVSIDGAQQASVALDWLRNNGYQDLASRACVVINHIMPGEPNVAVKDLVRHFEQQVQPGRVVVMPWDRHIAAGTEISLDLLDPIYKRKVLELAAALSDDFERAGRR” here?
Answer: soluble

Question: Which “soluble on expression in E. coli” value does the source give for “MAAESQLKRVIETLRRLGIEEVLKLERRDPQYRAVCNVVKRHGETVGSRLAMLNALISYRLTGKGEEHWEYFGKYFSQLEVIDLCRDFLKYIETSPFLKIGVEARKKRALKACDYVPNLEDLGLTLRQLSHIVGARREQKTLVFTIKILNYAYMCSRGVNRVLPFDIPIPVDYRVARLTWCAGLIDFPPEEALRRYEAVQKIWDAVARETGIPPLHLDTLLWLAGRAVLYGENLHGVPKEVIALFQWRGGCRPPSE” here?
Answer: soluble

Question: Which “soluble on expression in E. coli” value does the source give for “MAAFSQLYDLHINILFNYGLKLTIDKELLKDCIHDIFVKLYTKKDELGTIDNLKSYLFISLKNKLCDELRKRMYMSDTAIEDVNAVAPTDVEDDYMEEEQRKNEFSLVKRLLDQLSPRQREALTLYYIEEKKYEDICEIMNMNYQSVRNLMHRGLTKLRSLAS” here?
Answer: not soluble

Question: For “MAAGTFTAQNKVRPGVYINFKSEPQAAGTLGERGIVSMPLILSWGEPGKMITIEAGDDVFPKLGYSIMDAQLRLINEALKRAKTLLLYRLNAGTKAAVTVGNLTVTAKWGGARGNDITLVIQENIDDETKFDVSTLVDGAELDKQTVSDIAGLAANDWVIFSGTGALTETAGAPLINGSDGAVTNQAYIDYLAAVEIFDFNTIALPSTDDALKATFTAFAKRLRDDEGKKIQVVLENYPAADYEGVISVKNGVVLADGTILTAAQATAWVAGATAGARVNESLTYQGYDEAVDVAPRYTNAQIIAALQAGEFLFTASDNQALVEQDINTLTSFTADKGKQFAKNRVIRVLDGINNDFVRIFSKFYIGKVSNNADGRNLLKSECINYMNTLQDIDAIKNFDGQTDLTVQSGNDVDAVYIEAYAWPVDSIEKIYVRVRIKLEHHHHHH”, which “soluble on expression in E. coli” value is on record?
Answer: soluble

Question: Which “soluble on expression in E. coli” value does the source give for “MAAKNAFYAQSGGVTAVINASAAGVIEAARKQSGKIGRIYAGRNGIIGALTEDLIDTGQESDAAISALRYTPSGAFGSCRYKLKSLEQNRREYERLIEVFKAHDIGYFFYNGGGDSADTCLKVSQLSGTLGYPIQAIHVPKTVDNDLPITDCCPGFGSVAKYIAVSTLEASFDVASMSATSTKVFVLEVMGRHAGWIAAAGGLASSPEREIPVVILFPEISFDKQKFLAKVDSCVKKFGYCSVVVSEGVKGDDGKFLSDQGVRDAFGHAQLGGVAPVVASMVKEGLGLKYHWGVADYLQRAARHIASKTDVEQAYAMGQAAVEFAVQGHNSVMPTIERISARPYQWKVGMAQLSQVANVEKMMPENFITEDGFGITDLCREYLAPLIEGEDYPPYKDGLPDYVRLKNVAVPKKLSGFTL” here?
Answer: soluble

Question: With “MAAKRLAVLCIFLLPNTQFRQLRLAETAEELPQLLREAEKASWTYLEFLESITRYELAKREAKSLEKRMKWARFPFVKSLDEFELRGQNVLTARQLSQLRELSWLEQQYNLILLGPPGIGKTYIAIGLGLEAVYRGFHVYFATMGELVQLLKSEEYLNKSKVQLKRIRNADLVIIDDLMYMAMDQREANLFFHLINHLYERSSIILTSNKSPEEWGHLIGDQGITTAILDRLLHRVEVIHGGENEESHRMKNRKSIFSAEVLEHHHHHH” as the sequence, how does the “soluble on expression in E. coli” value read?
Answer: not soluble

Question: For “MAAKVEPFWKRKTLAQLDQDEWESLCDGCGLCCLQKLEDEDDGSVYYTRIACKLLDLQSCRCTNYAERIRFVPDCIQLTPAQADEFQWLPPTCGYRLVAEGKDLPLWHHLVCGDPERVHKERISQSGRMLSETQVAEDDWEDYLIFRAG”, which “soluble on expression in E. coli” value is on record?
Answer: not soluble
